According to IntAct's records for PubMed 32296183:

B1: Golgi SNAP receptor complex member 2 (Homo sapiens), O14653 (parent)
chain: MDPLFQQTHKQVHEIQSCMGRLETADKQSVHIVENEIQASIDQIFSRLERLEILSSKEPPNKRQNARLRVDQLKYDVQHLQTALRNFQHRRHAREQQERQREELLSRTFTTNDSDTTIPMDESLQFNSSLQKVHNGMDDLILDGHNILDGLRTQRLTLKGTQKKILDIANMLGLSNTVMRLIEKRAFQDKYFMIGGMLLTCVVMFLVVQYLT
partner: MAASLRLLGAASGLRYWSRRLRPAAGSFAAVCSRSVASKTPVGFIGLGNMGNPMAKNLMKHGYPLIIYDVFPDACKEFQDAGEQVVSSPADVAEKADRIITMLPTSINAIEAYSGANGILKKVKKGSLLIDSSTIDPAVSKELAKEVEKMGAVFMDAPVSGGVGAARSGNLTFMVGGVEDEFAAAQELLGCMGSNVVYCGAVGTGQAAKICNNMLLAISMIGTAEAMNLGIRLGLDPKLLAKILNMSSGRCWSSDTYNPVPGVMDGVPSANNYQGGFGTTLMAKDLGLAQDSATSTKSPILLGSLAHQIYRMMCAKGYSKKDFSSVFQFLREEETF
B2: Very-long-chain enoyl-CoA reductase (Homo sapiens), Q9NZ01 (parent)
chain: MKHYEVEILDAKTREKLCFLDKVEPHATIAEIKNLFTKTHPQWYPARQSLRLDPKGKSLKDEDVLQKLPVGTTATLYFRDLGAQISWVTVFLTEYAGPLFIYLLFYFRVPFIYGHKYDFTSSRHTVVHLACICHSFHYIKRLLETLFVHRFSHGTMPLRNIFKNCTYYWGFAAWMAYYINHPLYTPPTYGAQQVKLALAIFVICQLGNFSIHMALRDLRPAGSKTRKIPYPTKNPFTWLFLLVSCPNYTYEVGSWIGFAIMTQCLPVALFSLVGFTQMTIWAKGKHRSYLKEFRDYPPLRMPIIPFLL
partner: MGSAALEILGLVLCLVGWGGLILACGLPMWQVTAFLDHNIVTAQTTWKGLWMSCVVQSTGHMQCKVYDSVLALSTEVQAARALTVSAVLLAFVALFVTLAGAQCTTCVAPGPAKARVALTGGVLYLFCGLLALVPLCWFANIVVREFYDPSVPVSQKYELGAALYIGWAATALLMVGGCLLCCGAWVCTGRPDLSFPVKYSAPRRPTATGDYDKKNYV
B3: Ceroid-lipofuscinosis neuronal protein 6 (Homo sapiens), Q9NWW5 (parent)
chain: MEATRRRQHLGATGGPGAQLGASFLQARHGSVSADEAARTAPFHLDLWFYFTLQNWVLDFGRPIAMLVFPLEWFPLNKPSVGDYFHMAYNVITPFLLLKLIERSPRTLPRSITYVSIIIFIMGASIHLVGDSVNHRLLFSGYQHHLSVRENPIIKNLKPETLIDSFELLYYYDEYLGHCMWYIPFFLILFMYFSGCFTASKAESLIPGPALLLVAPSGLYYWYLVTEGQIFILFIFTFFAMLALVLHQKRKRLFLDSNGLFLFSSFALTLLLVALWVAWLWNDPVLRKKYPGVIYVPEPWAFYTLHVSSRH
partner: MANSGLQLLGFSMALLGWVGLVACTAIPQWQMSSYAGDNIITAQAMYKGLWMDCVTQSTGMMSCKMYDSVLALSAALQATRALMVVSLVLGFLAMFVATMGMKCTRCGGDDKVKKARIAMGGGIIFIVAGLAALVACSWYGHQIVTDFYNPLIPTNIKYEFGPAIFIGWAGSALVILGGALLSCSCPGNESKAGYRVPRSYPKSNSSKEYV
B4: Catenin alpha-3 (Homo sapiens), Q9UI47-2 (parent)
chain: MSAETPITLNIDPQDLQVQTFTVEKLLEPLIIQVTTLVNCPQNPSSRKKGRSKRASVLLASVEEATWNLLDKGEKIAQEATVLKDELTASLEEVRKESEALKVSAERFTDDPCFLPKREAVVQAARALLAAVTRLLILADMIDVMCLLQHVSAFQRTFESLKNVANKSDLQKTYQKLGKELENLDYLAFKRQQDLKSPNQRDEIAGARASLKENSPLLHSICSACLEHSDVASLKASKDTVCEEIQNALNVISNASQGIQNMTTPPEPQAATLGSALDELENLIVLNPLTVTEEEIRPSLEKRLEAIISGAALLADSSCTRDLHRERIIAECNAIRQALQDLLSEYMNNAGKKERSNTLNIALDNMCKKTRDLRRQLRKAIIDHVSDSFLDTTVPLLVLIEAAKNGREKEIKEYAAIFHEHTSRLVEVANLACSMSTNEDGIKIVKIAANHLETLCPQIINAALALAARPKSQAVKNTMEMYKRTWENHIHVLTEAVDDITSIDDFLAVSGMFLFF
partner: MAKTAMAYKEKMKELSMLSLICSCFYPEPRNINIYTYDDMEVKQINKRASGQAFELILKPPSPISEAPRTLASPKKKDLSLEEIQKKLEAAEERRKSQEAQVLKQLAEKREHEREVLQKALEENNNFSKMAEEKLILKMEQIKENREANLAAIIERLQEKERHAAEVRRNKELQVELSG
B5: Very-long-chain enoyl-CoA reductase (Homo sapiens), Q9NZ01 (parent)
chain: B2 chain
partner: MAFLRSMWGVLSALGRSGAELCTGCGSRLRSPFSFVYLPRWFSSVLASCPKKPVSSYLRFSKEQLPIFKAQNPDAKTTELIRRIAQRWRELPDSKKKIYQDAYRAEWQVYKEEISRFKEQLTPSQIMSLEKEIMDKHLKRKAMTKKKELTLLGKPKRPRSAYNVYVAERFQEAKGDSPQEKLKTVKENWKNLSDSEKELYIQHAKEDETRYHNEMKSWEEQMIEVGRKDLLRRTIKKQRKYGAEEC
B6: Golgi SNAP receptor complex member 2 (Homo sapiens), O14653 (parent)
chain: B1 chain
partner: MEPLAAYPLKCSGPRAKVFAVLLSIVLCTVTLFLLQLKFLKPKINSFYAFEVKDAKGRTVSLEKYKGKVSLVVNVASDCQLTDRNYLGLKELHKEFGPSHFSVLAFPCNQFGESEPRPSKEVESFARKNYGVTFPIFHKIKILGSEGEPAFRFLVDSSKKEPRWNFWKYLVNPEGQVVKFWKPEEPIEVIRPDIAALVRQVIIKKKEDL

Variants of: B1
Details: with 3hidh_human HIBADH

Row | Variant | effect of a mutation on the interaction
1 | MDPLFQQTHKQVHEIQSCMGRLETADKQSVHIVENEIQASIDQIFSRLERLEILSSKEPPNKRQNARLRVDQLKYDVQHLQTALRNFQHRRHAREQQERQREELLSRTFTTNDSDTTIPMDESLQFNSSLQKVHNGMDDLILDWHNILDGLRTQRLTLKGTQKKILDIANMLGLSNTVMRLIEKRAFQDKYFMIGGMLLTCVVMFLVVQYLT [G144W] | disrupting interaction strength

Variants of: B2
Details: with cld5_human CLDN5, O00501

Row | Variant | effect of a mutation on the interaction
2 | MKHYEVEILDAKTREKLCFLDKVEPHATIAEIKNLFTKTHPQWYPARQSLRLDPKGKSLKDEDVLQKLPVGTTATLYFRDLGAQISWVTVFLTEYAGPLFIYLLFYFRVPFIYGHKYDFTSSRHTVVHLACICHSFHYIKRLLETLFVHRFSHGTMPLRNIFKNCTYYWGFAAWMAYYINHLLYTPPTYGAQQVKLALAIFVICQLGNFSIHMALRDLRPAGSKTRKIPYPTKNPFTWLFLLVSCPNYTYEVGSWIGFAIMTQCLPVALFSLVGFTQMTIWAKGKHRSYLKEFRDYPPLRMPIIPFLL [P182L] | disrupting interaction strength

Variants of: B3
Details: with cld7_human CLDN7, O95471

Row | Variant | effect of a mutation on the interaction
3 | MEATRRRQHLGATGGPGAQLGASFLQARHGSVSADEAARTAPFHLDLWFYFTLQNWVLDFGRPIAMLVFPLEWFPLNKPSVGDYFHMAYNVITPFLLLKLIERSPRTLPRSITYVSIIIFIMDASIHLVGDSVNHRLLFSGYQHHLSVRENPIIKNLKPETLIDSFELLYYYDEYLGHCMWYIPFFLILFMYFSGCFTASKAESLIPGPALLLVAPSGLYYWYLVTEGQIFILFIFTFFAMLALVLHQKRKRLFLDSNGLFLFSSFALTLLLVALWVAWLWNDPVLRKKYPGVIYVPEPWAFYTLHVSSRH [G123D] | with no effect
4 | MEATRTRQHLGATGGPGAQLGASFLQARHGSVSADEAARTAPFHLDLWFYFTLQNWVLDFGRPIAMLVFPLEWFPLNKPSVGDYFHMAYNVITPFLLLKLIERSPRTLPRSITYVSIIIFIMGASIHLVGDSVNHRLLFSGYQHHLSVRENPIIKNLKPETLIDSFELLYYYDEYLGHCMWYIPFFLILFMYFSGCFTASKAESLIPGPALLLVAPSGLYYWYLVTEGQIFILFIFTFFAMLALVLHQKRKRLFLDSNGLFLFSSFALTLLLVALWVAWLWNDPVLRKKYPGVIYVPEPWAFYTLHVSSRH [R6T] | disrupting interaction strength

Variants of: B4
Details: with stmn2_human STMN2, Q93045

Row | Variant | effect of a mutation on the interaction
5 | MSAETPITLNIDPQDLQVQTFTVEKLLEPLIIQVTTLVNCPQNPSSRKKGRSKRASVLLASVEEATWNLLDKGEKIAQEATVLKDELTASLEEDRKESEALKVSAERFTDDPCFLPKREAVVQAARALLAAVTRLLILADMIDVMCLLQHVSAFQRTFESLKNVANKSDLQKTYQKLGKELENLDYLAFKRQQDLKSPNQRDEIAGARASLKENSPLLHSICSACLEHSDVASLKASKDTVCEEIQNALNVISNASQGIQNMTTPPEPQAATLGSALDELENLIVLNPLTVTEEEIRPSLEKRLEAIISGAALLADSSCTRDLHRERIIAECNAIRQALQDLLSEYMNNAGKKERSNTLNIALDNMCKKTRDLRRQLRKAIIDHVSDSFLDTTVPLLVLIEAAKNGREKEIKEYAAIFHEHTSRLVEVANLACSMSTNEDGIKIVKIAANHLETLCPQIINAALALAARPKSQAVKNTMEMYKRTWENHIHVLTEAVDDITSIDDFLAVSGMFLFF [V94D] | with no effect

Variants of: B5
Details: with tfam_human TFAM

Row | Variant | effect of a mutation on the interaction
6 | MKHYEVEILDAKTREKLCFLDKVEPHATIAEIKNLFTKTHPQWYPARQSLRLDPKGKSLKDEDVLQKLPVGTTATLYFRDLGAQISWVTVFLTEYAGPLFIYLLFYFRVPFIYGHKYDFTSSRHTVVHLACICHSFHYIKRLLETLFVHRFSHGTMPLRNIFKNCTYYWGFAAWMAYYINHLLYTPPTYGAQQVKLALAIFVICQLGNFSIHMALRDLRPAGSKTRKIPYPTKNPFTWLFLLVSCPNYTYEVGSWIGFAIMTQCLPVALFSLVGFTQMTIWAKGKHRSYLKEFRDYPPLRMPIIPFLL [P182L] | disrupting interaction strength

Variants of: B6
Details: with gpx8_human GPX8, Q8TED1

Row | Variant | effect of a mutation on the interaction
7 | MDPLFQQTHKQVHEIQSCMGRLETADKQSVHIVENEIQASIDQIFSRLERLEILSSKEPPNKRQNARLRVDQLKYDVQHLQTALRNFQHRRHAREQQERQREELLSRTFTTNDSDTTIPMDESLQFNSSLQKVHNGMDDLILDWHNILDGLRTQRLTLKGTQKKILDIANMLGLSNTVMRLIEKRAFQDKYFMIGGMLLTCVVMFLVVQYLT [G144W] | with no effect
